Biological target: the molecule itself
Assay: SEC

B1: CeLGRwt (full-length C. elegans LGR) (receptor)
chain: QNALSLAQTKHSCMALKAEDGEGCTCKQTKRYGQPECCCMGLIVSQLPTNLTADVGYLYLHNTSISVITPNFFDKFPSIRELEIDNSAHLEHIDGSSLSVLSKLRKLSVVKCPNLREISGKLLVNNTRIQNVILKNNGLATMPSLRMTDAHHVLLDRIDLSGNKIKFISDSKVRNVKARTVVLSENKLIEISGYAFTESQFLKLKLNNNPDLRSLSVDAFKNMAGLQTLDLSHTSIDTLPINGLKKLKTLILNDVPTLKSLPSVLSFTDLETAHFTYPHHCCLFKYVDDVTMNDNGKYQRNAKEIHKRICDKREQQKVARRRKRETSGIDFLDMLLKEWTDNSTYTGPDDADDDELPPFVEIGAEPCQSIGEEVQKYYSNITCYPQPDALNPCENIVGYPFLRIAVWVVCLAAIVGNIIVWALLGIVYEKRMRMHYLYMINMSVADMVTGIYLAVLAIADAKMSDEYYRHAVWWQTGWGCRAAGFLAVFASELGIISMFLIAFEMSYNTRQSFRGRRLSPKVGVLLMIGGWLFAIIMAILPWFDVSSYSESSVCLPLRAATIFDKSYLIFGLSFNFLAFAAMALSYGFIVKMLKENETREEDRALITKMTVLVVTDLICWFPTLFFGFTATIGFPLLSLSSAKFVLVFFFPINAFANPFLYVFFTEVIQHRVRSKTLPVIRRITTGPLNAASSLSNFYHSQPPGAHRRSRDEPTSPSGMHLAVTQTTSLNSTPRGSDVSRASDGMLFDYDRRASASPRVSFDIPISPTTPRSDRKNRISLLKRIVSSIPEVSDLSEHSSESHHEHVPHPRRKLRSSLNRILALGRRQEGSADSGRGSIASSAGSRDQNERVSLTSNASSILSPLLSPTNSNILILPPEPSKNRRKSTPAIPLLVVSDCS
stoichiometry N: 2

Reference: publication PMC12753827 (Nature Communications, 2025)
